Data on one substance can be found in ChEMBL document CHEMBL1137932, “Synthesis of S-alkyl L-homocysteine analogues of glutathione and their kinetic studies with gamma-glutamyl transpeptidase” (Bioorg Med Chem Lett, 2004).

Data set [1] deals with N[C@@H](CCS(=O)(=O)CCC(=O)NCC(=O)O)C(=O)O. Kind of data set: (§1) Michaelis-Menten constant for Gamma-glutamyltranspeptidase in rat kidney.
Data set [2] concerns NC(CC[S+]([O-])CCC(=O)NCC(=O)O)C(=O)O. The description is as §1.

Glutathione hydrolase 1 proenzyme (Rattus norvegicus), P07314, sequence (P07314 whole entry): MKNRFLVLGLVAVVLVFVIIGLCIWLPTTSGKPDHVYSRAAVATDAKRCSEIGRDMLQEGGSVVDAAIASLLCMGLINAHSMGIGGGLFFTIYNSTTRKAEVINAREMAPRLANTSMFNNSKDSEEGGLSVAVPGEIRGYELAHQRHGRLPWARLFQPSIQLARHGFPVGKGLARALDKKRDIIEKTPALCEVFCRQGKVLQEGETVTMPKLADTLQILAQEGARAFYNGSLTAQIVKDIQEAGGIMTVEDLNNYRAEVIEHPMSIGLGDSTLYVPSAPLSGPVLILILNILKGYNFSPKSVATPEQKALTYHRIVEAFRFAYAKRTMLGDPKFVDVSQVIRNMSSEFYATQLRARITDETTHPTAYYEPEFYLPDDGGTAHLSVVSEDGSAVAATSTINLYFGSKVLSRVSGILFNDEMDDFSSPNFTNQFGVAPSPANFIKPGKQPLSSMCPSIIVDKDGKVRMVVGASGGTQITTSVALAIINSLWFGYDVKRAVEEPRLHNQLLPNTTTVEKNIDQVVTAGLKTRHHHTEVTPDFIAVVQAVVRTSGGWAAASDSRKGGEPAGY

In the case of “Glutathione hydrolase 1 proenzyme (Rattus norvegicus), P07314”, the Km (commonly the substrate concentration at which the rate is half of its maximum) in data set [1] was 590 µM; in data set [2], 500 µM.
